From IntAct's records for PubMed 17717528

B1: Circadian clock oscillator protein KaiC (Thermosynechococcus elongatus (strain BP-1)), Q79V60 (parent)
chain: MTNLPEHQSSPTEQSSAEVKKIPTMIEGFDDISHGGLPQGRTTLVSGTSGTGKTLFAVQFLYNGITIFNEPGIFVTFEESPQDIIKNALSFGWNLQSLIDQGKLFILDASPDPDGQEVAGDFDLSALIERIQYAIRKYKATRVSIDSVTAVFQQYDAASVVRREIFRLAFRLKQLGVTTIMTTERVDEYGPVARFGVEEFVSDNVVILRNVLEGERRRRTVEILKLRGTTHMKGEYPFTINNGINIFPLGAMRLTQRSSNVRVSSGVKTLDEMCGGGFFKDSIILATGATGTGKTLLVSKFLETGCQQGERALLFAYEESRAQLSRNASSWGIDFEELERRGLLRIICAYPESAGLEDHLQIIKSEIADFKPSRVAIDSLSALARGVSNNAFRQFVIGVTGFAKQEEITGFFTNTTDQFMGSNSITESHISTITDTILLLQYVEIRGEMSRAINVFKMRGSWHDKGIREYVITEKGAEIRDSFRNFEGIISGTPTRISVDEKTELARIAKGMQDLESE
partner: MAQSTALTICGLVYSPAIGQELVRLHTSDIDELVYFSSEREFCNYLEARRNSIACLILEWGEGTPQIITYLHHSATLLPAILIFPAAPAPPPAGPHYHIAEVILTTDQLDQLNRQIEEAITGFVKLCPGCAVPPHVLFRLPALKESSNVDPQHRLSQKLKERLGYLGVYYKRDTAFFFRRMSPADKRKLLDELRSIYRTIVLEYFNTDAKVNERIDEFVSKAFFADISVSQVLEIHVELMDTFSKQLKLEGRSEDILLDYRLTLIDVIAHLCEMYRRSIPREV
B2: Circadian clock oscillator protein KaiC (Thermosynechococcus elongatus (strain BP-1)), Q79V60 (parent)
chain: B1 chain
partner: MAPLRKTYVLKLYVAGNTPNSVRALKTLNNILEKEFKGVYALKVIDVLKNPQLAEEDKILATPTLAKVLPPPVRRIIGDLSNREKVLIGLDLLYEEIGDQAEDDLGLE

Variants of: B1
Conditions: with kaia_thevb kaiA

| effect of a mutation on the interaction | Variant |
| --- | --- |
| decreasing interaction | T432A |

Variants of: B2
Conditions: with kaib_thevb kaiB

| effect of a mutation on the interaction | Variant |
| --- | --- |
| disrupting interaction | T432A |
